Reference: article PMC8248823, “Phosphorus and sulfur SAD phasing of the nucleic acid-bound DNA-binding domain of interferon regulatory factor 4”

Target: T1, IRF4 DBD (human, UniProt Q15306 20-139)
T1 sequence: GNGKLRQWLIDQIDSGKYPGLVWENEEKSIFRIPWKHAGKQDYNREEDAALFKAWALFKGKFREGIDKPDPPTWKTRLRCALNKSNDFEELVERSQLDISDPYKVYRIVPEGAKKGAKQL
Assay: X-ray crystallography (native P/S SAD); three IRF4 DBD molecules on one ISRE; DNA:protein 1.2:1 mixed before crystallization; Crystallization complex: protein in 20 mM Tris-HCl pH 8, 500 mM NaCl, 0.5 mM TCEP (gel-filtration buffer); DNA:protein 1.2:1, 1 h at 277 K; crystallization conditions not in material
Details: protein: recombinant; tags: N-terminal 6xHis; chain copies: 3; 5' overhang 1 nt on each strand (A / T), 20 bp duplex

B1: ISRE 21-mer (dsDNA)
DNA 1: AATAAAAGAAACCGAAAGTAA
DNA 2: TTTACTTTCGGTTTCTTTTAT
binding result: binds
